Measured values as given in paper PMC6021343.

Target: Transferrin receptor 1 (human (endogenous in HeLa)) (UniProt P02786)
Sequence (P02786 whole entry): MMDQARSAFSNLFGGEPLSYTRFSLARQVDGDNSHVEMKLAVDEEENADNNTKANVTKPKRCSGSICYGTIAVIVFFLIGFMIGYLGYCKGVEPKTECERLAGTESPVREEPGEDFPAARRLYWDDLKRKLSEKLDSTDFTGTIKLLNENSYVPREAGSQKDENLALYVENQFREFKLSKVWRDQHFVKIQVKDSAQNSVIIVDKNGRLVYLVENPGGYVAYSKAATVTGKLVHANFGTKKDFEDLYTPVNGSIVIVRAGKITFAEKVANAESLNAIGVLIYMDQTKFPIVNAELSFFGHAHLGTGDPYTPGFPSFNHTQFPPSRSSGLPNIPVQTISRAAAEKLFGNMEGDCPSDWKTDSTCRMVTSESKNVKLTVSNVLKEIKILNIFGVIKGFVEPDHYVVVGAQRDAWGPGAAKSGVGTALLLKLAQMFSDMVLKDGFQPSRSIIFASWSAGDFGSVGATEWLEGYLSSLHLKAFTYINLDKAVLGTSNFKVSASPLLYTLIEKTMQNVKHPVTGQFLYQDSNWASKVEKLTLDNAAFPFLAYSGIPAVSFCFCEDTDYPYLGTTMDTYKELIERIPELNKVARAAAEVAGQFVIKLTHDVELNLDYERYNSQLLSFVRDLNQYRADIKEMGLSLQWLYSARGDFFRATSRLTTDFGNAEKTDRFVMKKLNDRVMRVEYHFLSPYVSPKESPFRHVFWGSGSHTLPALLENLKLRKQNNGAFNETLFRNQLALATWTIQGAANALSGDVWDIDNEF

human H-ferritin loaded with about 350 iron ions per cage, sequence (P02794 whole entry): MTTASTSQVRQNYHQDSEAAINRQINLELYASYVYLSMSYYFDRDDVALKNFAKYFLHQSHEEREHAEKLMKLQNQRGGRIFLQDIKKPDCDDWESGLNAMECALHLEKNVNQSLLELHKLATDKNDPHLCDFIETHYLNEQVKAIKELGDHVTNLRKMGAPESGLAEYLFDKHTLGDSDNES

iron uptake by HeLa cells (ICP-MS of lysates) after 5 h with H-350 1 μM: decrease of uptake when 20 μM Holo-transferrin was added to the medium: 50%
Substance: human H-ferritin loaded with about 350 iron ions per cage (from UniProt P02794 1-183) (natural protein)
